This note sets out measurements from US20160311886A1, “Constructs Binding to Phosphatidylserine and Their Use in Disease Treatment and Imaging” (Board of Regents, The University of Texas System, priority 2005, published 2016).

The test system of test [1] is IL-1α-stimulated bEnd.3 cells. The test is described as follows: Coaguligand-induced Factor Xa formation, chromogenic assay. Conditions: 10 μg per ml Annexin V. Format: cell-based, mouse. The procedure:
The ability of Annexin V to affect Factor Xa formation induced by coaguligand was determined by a chromogenic assay. IL-1α-stimulated bEnd.3 cells were incubated with anti-VCAM-·tTF and permeabilized by saponin. Annexin V was added at concentrations ranging from 0.1 to 10 μg/ml and cells were incubated for 30 min. before addition of diluted Proplex T. The amount of Factor Xa generated in the presence or absence of Annexin V was determined. Each treatment was performed in duplicate and repeated at least twice.

The subject of test [2] is RSV long strain. The test is described as follows: RSV plaque assay after antibody treatment. Conditions: MOI of 1.
The subject of test [3] is Pan02 mouse pancreatic adenocarcinoma. The test is described as follows: 3G4 and gemcitabine, pancreatic cancer. Format: in vivo. Conditions: 3G4 100 μg, gemcitabine 3.5 mg; day 22. The procedure: Pan02 mouse pancreatic adenocarcinoma cells were injected into the pancreas of immunocompetent C57BL/6 mice. Treatment was started on day 5 after tumor cell injection. […] Gemcitabine is a pyrimidine anti-metabolite. The animals were sacrificed at day 22 after tumor cell injection, and the tumor weight determined.

Test [4] concerns WiDr (colon carcinoma). Nature of the test: WiDr colon carcinoma model. Format: in vivo, mouse. Conditions: 100 μg 3×/week from day 5; preliminary study. The procedure:
Treatment was started on day 5, when the tumors were small (10 mice per group). 100 μg of each antibody was injected 3×/week and tumor growth monitored.

Test [5] concerns hβ2GPI domains. The test is described as follows: ELISA on recombinant hβ2GPI domain constructs. Format: binding, human. Conditions: constructs I-V, II-V, III-V, IV-V. The procedure: The assay was performed as described above with the following modifications. hβ2GPI, nicked hβ2GPI, or recombinant hβ2GPI peptides were coated on 96-well Immunlon 2HB microtiter plates overnight at a concentration of 10 μg/ml. Plates were then blocked in 1% OVA for 1 hr. at room temperature. […] Plates were incubated for 1 hr. at 37° C. and antibody binding was detected. All ELISA studies were performed at least three times.
β2GPI has five domains, of which the fifth domain is responsible for binding to anionic phospholipids. […] These domain constructs were made by serial truncations from the N-terminus, and so lack each of the N-terminal domains in turn, as follows: recombinant full-length hβ2GPI contains domains I-V; hβ2GPI from which domain I has been deleted contains domains II-V; hβ2GPI from which domains I and II have been deleted contains domains III-V; hβ2GPI from which domains I, II and III have been deleted contains domains IV-V; and hββ2GPI from which domains I, II, III and IV have been deleted contains domain V only.
(In an ELISA, binding on a coated surface is turned into a signal by an enzyme label.)

As to “Annexin V: High affinity PS binding ligand; natural ligand binding anionic phospholipids and PE”, the “inhibition of factor Xa production” value in test [1] came to 58%.

B1: 3G4: Mouse IgG3 kappa monoclonal antibody to PS and anionic phospholipids; binding mediated by β2-glycoprotein I (antibody, listed as Mus musculus)
VH: MGWTWIFILILSVTTGVHSEVQLQQSGPELEKPGASVKLSCKASGYSFTGYNMNWVKQSHGKSLEWIGHIDPYYGDTSYNQKFRGKATLTVDKSSSTAYMQLKSLTSEDSAVYYCVKGGYYGHWYFDVWGAGTTVTVSSATTTAPSVYPLVP
VL: MDMRAPAQILGFLLLLFPGTRCDIQMTQSPSSLSASLGERVSLTCRASQDIGSSLNWLQQGPDGTIKRLIYATSSLDSGVPKRFSGSRSGSDYSLTISSLESEDFVDYYCLQYVSSPPTFGAGTKLELKRADAAPTVFIFGRIP
Turning to B1, the “decrease in viral titer” value in test [2] is recorded as 2 log10. Moreover, the “anti-tumor effect (tumor weight)” value in test [3] is given as “significant anti-tumor effect”. Also, in test [4], the tumor growth result is recorded as “slowed tumor growth to essentially the same degree”. For the same molecule, the β2GPI domain recognized entry in test [5] is recorded as “binds to β2GPI at domain II”.
